Results from the supplement of paper PMC7125110.
± gives the standard error. Fewer inactive variants are shown than the library holds.

B1: glmS ribozyme (parent)
chain: AUAAAAGCGCCAGAACUACAGAAAUGUAGUUGACGAGGAGGAGGUUUAUCGAAUUUUCGGCGGAUGCCUCCAAA

How the values were obtained:
Conditions in all cases: with glucosamine-6-phosphate
glucosamine-6-phosphate [1] = variants of: B1; test: self-cleavage kobs at 40 uM GlcN6P; higher = faster cleavage; RNA array
Procedure, shortened: (§1)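 In situ transcription by E. coli RNA polymerase produced barcoded ribozyme variants on sequenced MiSeq chips, and a hybridised Cy3 probe tracked them at 37 °C. Glucosamine-6-phosphate was flowed in at 40 μM to 10 mM in HEPES/KCl/Mg(OAc)2 buffer. kcat and KM were taken from weighted Michaelis–Menten fits of kobs values from exponential decay fits.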

glucosamine-6-phosphate [2] = variants of: B1; test: self-cleavage kobs at 160 uM GlcN6P; higher = faster cleavage; RNA array
Procedure, shortened: as §1

glucosamine-6-phosphate [3] = variants of: B1; test: self-cleavage kobs at 640 uM GlcN6P; higher = faster cleavage; RNA array
Procedure, shortened: as §1

glucosamine-6-phosphate [4] = variants of: B1; test: self-cleavage kobs at 2500 uM GlcN6P; higher = faster cleavage; RNA array
Procedure, shortened: as §1

glucosamine-6-phosphate [5] = variants of: B1; test: self-cleavage kobs at 10000 uM GlcN6P; higher = faster cleavage; RNA array
Procedure, shortened: as §1

Variant | self-cleavage kobs at 40 uM GlcN6P (glucosamine-6-phosphate [1]) [s⁻¹] | self-cleavage kobs at 160 uM GlcN6P (glucosamine-6-phosphate [2]) [s⁻¹] | self-cleavage kobs at 640 uM GlcN6P (glucosamine-6-phosphate [3]) [s⁻¹] | self-cleavage kobs at 2500 uM GlcN6P (glucosamine-6-phosphate [4]) [s⁻¹] | self-cleavage kobs at 10000 uM GlcN6P (glucosamine-6-phosphate [5]) [s⁻¹]
U69A | 0.000341 ± 7.7e-05 | 0.000534 ± 0.00018 | 0.000282 ± 3.1e-05 | 0.00219 ± 0.0004 | 0.000299 ± 4.6e-05
G41A G43C U49A C50G C58A | < 1e-05 |  |  |  | 
C11U A33U C61G | < 1e-05 |  |  |  | 
C34A C50U | < 1e-05 | < 1e-05 | < 1e-05 | < 1e-05 | < 1e-05
G43C G59C | < 1e-05 | < 1e-05 | < 1e-05 | < 1e-05 | < 1e-05
A39C A42G A64C C67G | < 1e-05 |  |  |  | < 1e-05
A39U C68U C71U | 0.000103 ± 3e-05 |  |  |  | 
A6U A33G G41A A64U | < 1e-05 | < 1e-05 | < 1e-05 | < 1e-05 | 
G41A C68G | < 1e-05 | < 1e-05 | < 1e-05 | < 1e-05 | < 1e-05
A52G U54G C61G | < 1e-05 |  |  |  | 
A6C A12C G59C | < 1e-05 |  | < 1e-05 |  | < 1e-05
G13C U46G | < 1e-05 | < 1e-05 | < 1e-05 |  | 
G40C U56A G62C | < 1e-05 |  |  | < 1e-05 | 
A6U G40C | < 1e-05 |  |  |  | 
G40U G51A | < 1e-05 |  | < 1e-05 | < 1e-05 | < 1e-05
A6G A52G A53G C67G | 6.36e-05 ± 3.1e-05 |  | 0.00028 ± 0.00011 |  | 
U49C C50A | < 1e-05 | < 1e-05 |  |  | 
G44A U69A | < 1e-05 | < 1e-05 | < 1e-05 | < 1e-05 | < 1e-05
A12U A64G | 0.000953 ± 0.00018 | 0.0025 ± 0.00063 | 0.00536 ± 0.0011 | 0.0169 ± 0.0043 | 0.052 ± 0.015
A14U G35U G44C | < 1e-05 | < 1e-05 | < 1e-05 | < 1e-05 | < 1e-05
A14U G38U G63U | < 1e-05 |  |  |  | < 1e-05
